From US20080206243A1 (Genentech, published 2008)
One block for each molecule: values may come before it.

Columns and labels:
[1] = target: T1, KDR (UniProt P35968 20-764, limits assumed); experiment: soluble radio-immuno receptor-binding assay (RIA)
T1 construct: The receptor construct used in the RIA is not described; also called KDR receptor; VEGFR-2

[2] = target: T2, Flt-1 (UniProt P17948 27-758, limits assumed); experiment: soluble radio-immuno receptor-binding assay (RIA); target Flt-1
T2 construct: The receptor construct used in the RIA is not described; also called Flt-1 receptor; VEGFR-1
T2 sequence (P17948 27-758 limits assumed): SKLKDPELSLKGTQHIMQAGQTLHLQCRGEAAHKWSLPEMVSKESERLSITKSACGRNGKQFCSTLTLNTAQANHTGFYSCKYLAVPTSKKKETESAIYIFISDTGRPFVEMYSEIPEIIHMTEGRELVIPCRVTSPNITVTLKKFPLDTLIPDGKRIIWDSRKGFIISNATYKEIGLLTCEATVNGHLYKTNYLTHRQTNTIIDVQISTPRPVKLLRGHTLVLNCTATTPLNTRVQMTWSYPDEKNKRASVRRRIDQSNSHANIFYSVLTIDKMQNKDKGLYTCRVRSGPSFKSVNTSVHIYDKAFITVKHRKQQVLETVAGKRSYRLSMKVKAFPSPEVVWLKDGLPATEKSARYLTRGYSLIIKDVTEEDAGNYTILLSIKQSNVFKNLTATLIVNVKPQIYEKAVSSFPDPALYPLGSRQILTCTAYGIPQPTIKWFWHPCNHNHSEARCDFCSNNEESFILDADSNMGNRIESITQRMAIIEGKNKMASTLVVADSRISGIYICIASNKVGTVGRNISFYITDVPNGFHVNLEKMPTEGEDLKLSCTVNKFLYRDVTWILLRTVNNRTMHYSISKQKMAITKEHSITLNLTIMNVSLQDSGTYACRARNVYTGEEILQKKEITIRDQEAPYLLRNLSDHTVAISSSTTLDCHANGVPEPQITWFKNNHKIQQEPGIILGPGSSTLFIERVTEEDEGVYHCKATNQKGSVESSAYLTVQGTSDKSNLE

[3] = target: T1, KDR; experiment: soluble radio-immuno receptor-binding assay (RIA); target KDR

T1 sequence (P35968 20-764 limits assumed): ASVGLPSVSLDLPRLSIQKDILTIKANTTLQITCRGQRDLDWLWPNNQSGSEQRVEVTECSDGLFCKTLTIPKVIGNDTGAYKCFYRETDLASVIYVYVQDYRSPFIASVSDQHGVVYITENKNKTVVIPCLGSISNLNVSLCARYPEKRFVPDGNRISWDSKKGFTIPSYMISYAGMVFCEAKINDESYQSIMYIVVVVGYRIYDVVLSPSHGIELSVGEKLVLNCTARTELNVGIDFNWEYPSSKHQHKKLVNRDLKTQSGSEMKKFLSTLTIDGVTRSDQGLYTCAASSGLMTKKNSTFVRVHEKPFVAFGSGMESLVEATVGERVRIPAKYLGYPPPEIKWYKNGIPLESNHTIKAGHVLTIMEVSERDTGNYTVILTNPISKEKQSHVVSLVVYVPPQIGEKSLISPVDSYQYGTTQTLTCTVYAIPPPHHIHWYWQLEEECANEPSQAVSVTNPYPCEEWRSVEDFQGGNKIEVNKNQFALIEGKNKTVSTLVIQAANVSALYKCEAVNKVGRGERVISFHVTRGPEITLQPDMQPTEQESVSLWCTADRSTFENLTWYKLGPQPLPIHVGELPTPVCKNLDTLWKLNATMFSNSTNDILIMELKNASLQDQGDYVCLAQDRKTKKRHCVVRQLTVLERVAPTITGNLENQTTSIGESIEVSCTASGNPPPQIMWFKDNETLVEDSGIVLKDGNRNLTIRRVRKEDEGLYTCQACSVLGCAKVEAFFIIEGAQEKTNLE

fold reduction of KDR-binding affinity against native VEGF [1]: > 470 fold
Molecule: I43A/I46A/Q79A/I83A Flt-sel variant (from UniProt P15692 27-135) (ligand)

Kd [2]: 0.4 nM
Kd [3]: 0.5 nM
B1: native VEGF(8-109) (ligand, human, UniProt P15692 214-315, looked up)
chain: GQNHHEVVKFMDVYQRSYCHPIETLVDIFQEYPDEIEYIFKPSCVPLMRCGGCCNDEGLECVPTEESNITMQIMRIKPHQGQHIGEMSFLQHNKCECRPKKD
notes: range 8-109; Residues 8-109 are counted on the native (mature) 165-amino acid VEGF, not on the precursor with its signal peptide; the listing holds only primers; also called native protein
